In patent publication US20220267421A1 (INVOX PHARMA, published 2022):

Columns and labels:
human MSLN-His-Avi [1] = target: T1, human MSLN-His-Avi (human, UniProt Q13421 296-598, single biotin (BirA) in the biotinylated form); assay: ELISA, hMSLN-His-Avi coated at 1 ug/ml
T1 construct: Monomeric, made in HEK293-6E; Used both immobilised and in solution; also called hMSLN-His-Avi; biotinylated hMSLN-His-Avi

human MSLN-His-Avi [2] = target: T1, human MSLN-His-Avi; assay: SPR (Biacore), hMSLN-His-Avi immobilised at 100 RU, mAb injected
Protocol: Human MSLN-His-Avi was immobilised on flow cell 2 on a CM5 Series S BIAcore sensor chip (GE Healthcare, BR100530) using an amine coupling kit (GE Healthcare, BR10050) to approximately 200 response units (RU). Flow cell 1 was left blank for subtraction. HEK293-6E supernatants or purified proteins were adjusted with HBS-EP+(GE Healthcare) to approximately 50 nM anti-MSLN mAb per sample. Samples were injected over flow cell 1 and 2 for 2.5 min at 30 μl/min and then allowed to dissociate in HBS-EP buffer for 2.5 min. Regeneration was achieved by injecting 10 mM glycine pH 1.5 (GE Healthcare, BR100354) for 30 seconds at a rate of 30 μl/min. Subtracted data (flow cell 2−flow cell 1) were analysed using BIAevaluation 3.2 Software (GE Healthcare).
For each bin described in 2.1.3, the binding kinetics were determined using the same method as described in section 2.1.2, except that human or cyno MSLN-His-Avi was immobilised at 50 or 100 RU. Clones were tested at a concentration range of 81 nM to 0.33 nM in 3-fold dilutions.

T1 sequence (Q13421 other isoform, or with tags, fused parts or gaps): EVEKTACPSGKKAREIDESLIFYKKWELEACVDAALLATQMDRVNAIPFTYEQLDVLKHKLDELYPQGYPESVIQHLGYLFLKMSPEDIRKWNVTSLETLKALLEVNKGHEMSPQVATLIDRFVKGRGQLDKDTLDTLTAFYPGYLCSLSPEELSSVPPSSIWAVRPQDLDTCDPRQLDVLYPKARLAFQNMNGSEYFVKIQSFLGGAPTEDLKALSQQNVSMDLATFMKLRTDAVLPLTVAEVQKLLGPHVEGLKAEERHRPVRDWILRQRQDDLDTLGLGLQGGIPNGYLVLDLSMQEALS

| EC50 (human MSLN-His-Avi [1]) | maximum binding signal (human MSLN-His-Avi [1]) | Kd (human MSLN-His-Avi [2]) | Binder |
| --- | --- | --- | --- |
| ~0.5 nM | 3 | 0.23 nM | G1-AA/FS28-024 (antibody, human IgG1, kappa, L234A L235A, V domains shown, Complete human IgG1 with LALA mutation; also called FS28-024 mAb (in G1-AA format)) VH: EVQLLESGGGLVQPGGSLRLSCAASGFTLSYSSMSWVRQAPGKGLEWVSFITPSTGYTHYADSVKGRFTISRDNSKNTLYLQMNSLRAEDTAVYYCARRALTFDYWGQGTLVTVSS VL: EIVLTQSPGTLSLSPGERATLSCRASQSVSSSYLAWYQQKPGQAPRLLIYGASSRATGIPDRFSGSGSGTDFTLTISRLEPEDFAVYYCQQASSYPLTFGQGTKVEIKR |
| ~0.5 nM | 3 | 0.12 nM | G1-AA/FS28-026 (antibody, human IgG1, kappa, L234A L235A, V domains shown, IgG1 LALA; also called FS28-026 mAb (in G1-AA format)) VH: EVQLLESGGGLVQPGGSLRLSCAASGFTFSNYAMTWVRQAPGKGLEWVSSITPYYSKTDYADSVKGRFTISRDNSKNTLYLQMNSLRAEDTAVYYCARNWYRFDYWGQGTLVTVSS VL: not shown |
| ~0.5 nM | 3 | 0.76 nM | G1-AA/FS28-091 (antibody, human IgG1, kappa, L234A L235A, V domains shown, IgG1 LALA; also called FS28-091 mAb (in G1-AA format)) VH: EVQLLESGGGLVQPGGSLRLSCAASGFTFTNYAMSWVRQAPGKGLEWVSSIKPYDGNTYYADSVKGRFTISRDNSKNTLYLQMNSLRAEDTAVYYCARNRWVFDYWGQGTLVTVSS VL: not shown |
